A word on the Kd: it is the equilibrium constant for the complex coming apart. Usually koff stands for the first-order rate constant of dissociation. Read a low koff as slow dissociation. For orientation: kon means a measure of how fast the partners come together. The low end stands for slower complex formation, the high end for faster complex formation. By EC50 is commonly meant the concentration at which the effect is half-maximal. Low readings indicate a more potent agent, high ones a less potent agent.

The target of test [1] is T1, receptor-binding domain (RBD) of the SARS-COV-2 spike (S) protein (SARS-COV-2, UniProt P0DTC2 319-541). The test can be described thus: SPR kinetic. (SPR reads the build-up and loss of mass on a sensor chip optically.)
Test [2] addresses T1, receptor-binding domain (RBD) of the …. The test can be described thus: SPR kinetic. The source holds these as a separate data set.
Test [3] has the same target. The test can be described thus: SPR equilibrium.
Test [4] shares this target. The test can be described thus: On-yeast EC50.
The target is the same in test [5]. The test can be described thus: SPR kinetic. The source holds these as a separate data set.
Test [6] shares this target. The test can be described thus: monovalent affinity, assay not named.
Test [7] shares this target. Nature of the test: SPR equilibrium. The source holds these as a separate data set.
Test [8] has the same target. The test can be described thus: SPR equilibrium; affinity measurement note: Saturation not reached.
Test [9] has the same target. Nature of the test: SPR equilibrium. This is another data set of the same source.

Positions count from the first letter of the chain named. Where two headings read alike, the source gives them in different places.

B1: RBD6i10 (VHH)
VHH: QVQLQESGGGLVQAGGSLRLNCAASGSISTTYLMGWYRQAPGKERKFVATINRGGSTYYAVSVKGRFTISRDNAKNTVYLQMNSLKPEDTAVYYCAVGWPDPDYGLAYHRYWGQGTQVTVNS
As to B1, in test [1], the Kd turned out to be 597 nM, the koff stood at 0.00568 s⁻¹ and the kon came out at 9500 M⁻¹ s⁻¹.

B2: RBD6 (VHH)
VHH: B1 VHH with N21S, K46E, V61D, N121S
In test [2], B2 yielded a Kd of 990 nM, a koff of 0.00892 s⁻¹ and a kon of 9010 M⁻¹ s⁻¹.

B3: RBD6i13 (VHH)
VHH: B1 VHH with D103G
B3: in test [3], the affinity, expressed as Kd, was 558 nM.

B4: RBD6id (VHH)
VHH: B1 VHH with S25N, K46E, V61I, N121S
Take B4: in [1], the equilibrium dissociation constant (Kd) came out at 263 nM, the off-rate constant (koff) was 0.00271 s⁻¹ and the association rate constant (kon) came out at 10300 M⁻¹ s⁻¹.

B5: RBD9 (VHH)
VHH: QVQLQESGGGLVQAGGSLRLSCAASGYIFYSRRMGWYRQAPGKEREFVATIGHGTSTYYADSVKGRFTISRDNAKNTVYLQMNSLKPEDTAVYYCAALPRPHGAGTADARYNLWYWGQGTQVTVSS
In test [4], B5 had a 50% effective concentration (EC50) of 131 nM.

B6: RBD9i10 (VHH)
VHH: B5 VHH with T55A, D61G, N83D
For B6, it took 15.2 nM to reach a half-maximal effect in test [4] (EC50).

B7: RBD7i12 (VHH)
VHH: QVQLQESGGGLVQAGGSLRLSCAASGYISGAYYMGWYRQAPGKEREFVAGIGGGSTNYADSVKGRFTISRDNAKNTVYLQMNSLKPEDTAVYYCAVYQSVAYYCRGYFSYWGQGTQVTVSS
In test [3], B7 gave a Kd of 2590 nM. In other words, the single-digit micromolar range.

B8: RBD7i13 (VHH)
VHH: B7 VHH with E46K
In test [3], B8 came in with a dissociation constant Kd of 659 nM.

B9: RBD7 (VHH)
VHH: B7 VHH with C104Y
For the molecule B9, in test [3], the Kd was 2210 nM.

B10: RBD10i10 (VHH)
VHH: QVQLQESGGGLVQAGGSLRLSCAASGTIFQVGSMGWYRQAPGKGRKFVATIADGGSTNYAGSVKGRFTISRDNAKNTVYLQMNSLKPEDTAVYYCAALGQVSEYNSASYEWTYPYWGQGTQVTVSS
In test [5], B10 came in with a dissociation constant Kd of 2.14 nM and an on-rate constant (kon) of 154000 M⁻¹ s⁻¹.

B11: RBD10i14 (VHH)
VHH: B10 VHH with M34V, G55S
Take B11: the dissociation constant (Kd) in [6] was found to be 0.72 nM. In test [5], this molecule had a koff of 0.000118 s⁻¹ and an on-rate constant (kon) of 167000 M⁻¹ s⁻¹.

B12: RBD10 (VHH)
VHH: B10 VHH with G44E, K46E, G55S, G61D
In test [5], B12 had an equilibrium dissociation constant (Kd) of 417 nM, a koff of 0.00552 s⁻¹ and a kon of 13200 M⁻¹ s⁻¹.

B13: RBD8 (VHH)
VHH: QVQLQESGGGLVQAGGSLRLSCAASGTIFGGPWMGWYRQAPGKEREFVAAIARGGNTNYADSVKGRFTISRDNAKNTVYLQMNSLKPEDTAVYYCAARDAVYPYLKYWGQGTQVTVSS
Molecule B13 returned an EC50 in test [4] of 80.8 nM.

B14: RBD8i1 (VHH)
VHH: B13 VHH with F29S
B14: a half-maximal effect in [4] (EC50) was put at 35.4 nM.

B15: RBD3i2 (VHH)
VHH: QAQLQESGGGLVQAGGSLRLSCAASGNISDFRFMGWYRQAPGKERELVAAIGRGSNTRYADSVKGRFTISRDNAKNTVYLQMNSLKPEDTAVYYCAARNATYPYYVYWGQGTQVTVSS
Regarding B15, the Kd in [7] amounted to 128 nM.

B16: RBD3i17 (VHH)
VHH: B15 VHH with Y59C
Molecule B16 gave a Kd in test [7] of 230 nM.

B17: RBD3 (VHH)
VHH: B15 VHH with A2V, R58Y
For B17, binding in test [8] was characterised by a dissociation constant (Kd) of 6000 nM.

B18: RBD11 (VHH)
VHH: QVQLQESGGGLVQAGGSLRLSCAASGNIFAKVWMGWYRQAPGKEREFVASIANGATTYYADSVKGRFTISRDNAKNTVYLQMNSLKPEDTAVYYCAARNWSGLGHFYWGQGTQVTVSS
Consider B18, for which the dissociation constant Kd in test [9] came out at 2420 nM.

B19: RBD11i12 (VHH)
VHH: B18 VHH with E44G, H105Y, G109S
As to B19, the Kd in [9] came to 316 nM.

B20: RBD1i1 (VHH)
VHH: QVQLQESGGGLVQAGGSLRLSCAASGTISYENFMGWYRQAPGKERKLVAGINDGTNTYYADSVKGRFTISRDNAKNTVYLQMNSLKPEDTAVYYCAVIGASVLGHAYWGQGTQVTVSS
As for B20, in test [2], binding was characterised by a dissociation constant (Kd) of 48.1 nM, the off-rate constant (koff) was 0.0023 s⁻¹ and the on-rate constant (kon) was 47700 M⁻¹ s⁻¹.

B21: RBD1 (VHH)
VHH: B20 VHH with K46E, A100T
Regarding B21, in test [2], the dissociation constant (Kd) worked out at 1400 nM, the koff is 0.0221 s⁻¹ and the kon worked out at 15800 M⁻¹ s⁻¹.

B22: RBD1i13 (VHH)
VHH: B20 VHH with E44G, K86E
In test [2], B22 displayed a Kd of 32.2 nM, a koff of 0.00216 s⁻¹ and a kon of 67200 M⁻¹ s⁻¹.

Values taken from patent publication US20240182911A1 (University of California, published 2024).
